Like-named read-outs stand apart in the source and are kept apart here.

Experiment [1] has as its target pHAb-dye labelled human α-synuclein fibrils (1-140) (human, UniProt P37840 1-140). Put plainly: cell-based or functional assay.
Experiment [2] addresses T1, recombinant human α-synuclein fibril (human, UniProt P37840 1-140). In words: cell-based or functional assay.
For experiment [3], the target named is T2, monomeric human α-synuclein (human, UniProt P37840 1-140). In words: Kinexa at 37 C, solution equilibrium.
Protocol: (§1) These samples are incubated for 24 to 48 hours at 37 C to allow for steady state equilibrium to be achieved. During this time, sepharose beads are conjugated with monomeric human alpha-synuclein and blocked with a suitable non-specific binding protein (typically BSA or casein). Once steady state is achieved, a small capillary is packed with coated beads and samples of each fixed antibody/alpha-synuclein monomer are injected over the column. […] This step is repeated for each concentration of alpha-synuclein monomer and resultant fluorescent signal (proportional to percent free antibody) and then plotted as a function of fluorescent signal versus monomeric α-synuclein concentration and globally fit to a 1:1 binding model to obtain KD. Independent runs (n=3) run with technical duplicates (95% confidence intervals) are reported.
In experiment [4] the target is monomeric rabbit alpha-synuclein (rabbit). In words: Kinexa at 37 C, solution equilibrium.
Protocol: as §1
The target in experiment [5] is monomeric rat alpha-synuclein (rat, UniProt P37377 1-140). Put plainly: Kinexa at 37 C, solution equilibrium.
Protocol: as §1
The target in experiment [6] is monomeric mouse alpha-synuclein (mouse, UniProt O55042 1-140). In words: Kinexa at 37 C, solution equilibrium.
Protocol: as §1
Experiment [7] has as its target T3, mIgG1-hAsyn100-140 (mouse; human, UniProt P37840 100-140).
T3 construct: C-terminal fragment of human α-synuclein fused onto the C-terminal end of a mouse Fc; also called dimeric human alpha-synuclein; dimeric α-synuclein; not shown: mouse IgG1 Fc fragment; short unstructured linker element
In words: MSD-SET solution equilibrium at 25 C.

For experiment [8], the target named is T3, mIgG1-hAsyn100-140. Put plainly: MSD-SET solution equilibrium at 37 C.
Protocol: During this incubation time, an MSD Sector plate is coated with monomeric human alpha-synuclein and blocked with a blocking reagent (i.e. BSA, casein). Following steady state equilibrium incubation times, individual antibody/mIgG1-hAsyn 100-140 mixtures are added simultaneously to the plate and allowed to incubate for 10 minutes to capture free antibody and minimize exchange with antibody in complex with mIgG1-hAsyn100-140. Following this short incubation, plates are subsequently washed and incubated with a biotinylated anti-human secondary antibody, followed by detection using streptavidin-S-tag on the MSD instrument. The resultant MSD signal (proportional to % free antibody) is then plotted as a function of mIgG1-hAsyn100-140 concentration and globally fit to a four parameter fit to obtain IC₅₀ (KD). Reported 95% confidence intervals represent the fitting of N=3 independent runs each with technical duplicates. The avidity-factor is the ratiometric difference between monomer affinity and dimer affinity and represents the selectivity in binding between monomeric and dimeric α-synuclein for antibody.
Experiment [9] addresses monomeric human alpha-synuclein fragment 1-121 (human, UniProt P37840 1-121). In words: Kinexa at 37 C, solution equilibrium.
Protocol: as §1
Experiment [10] addresses monomeric human alpha-synuclein fragment 1-115 (human, UniProt P37840 1-115). In words: Kinexa at 37 C, solution equilibrium.
Protocol: as §1
Experiment [11] has as its target T2, monomeric human α-synuclein. In words: Kinexa at 37 C, solution equilibrium. The source holds these as a separate data set.
Protocol: as §1
In experiment [12] the target is T1, recombinant human α-synuclein fibril. In words: ELISA, plate coated with fibril at 1 µg/ml. (In general: An ELISA detects its analyte on a solid surface through an enzyme-linked reagent.)
Protocol: An Enzyme-Linked Immunosorbent Assay (ELISA) is performed for quantitative determination of antibody affinity to recombinant human α-synuclein fibril.
(§2) An ELISA plate is coated with recombinant human α-synuclein fibril at 1 μg/ml in PBS overnight at 4° C. The next day, the plate is incubated with 1% casein for 1 hour at room temperature to block non-specific binding sites on the plate. […] After incubation, the plate is washed three times with 0.1% PBST to remove un-bound antibody and incubated with a detection agent (1:1000 diluted goat-anti-human Kappa-AP) in 0.1% PBST for 1 hour at room temperature. The plate is washed three times with 0.1% PBST to remove un-bound detection agent and incubated with a substrate for 15 minutes at room temperature. The OD is then read in an ELISA plate reader at 560 nm. The binding curve is obtained based on the antibody concentration and OD560 readout.
Experiment [13] deals with T3, mIgG1-hAsyn100-140. In words: ratio of Kinexa KD for monomeric human α-synuclein to MSD-SET KD for dimeric α-synuclein, 37 C.
Protocol: During this time, sepharose beads are conjugated with monomeric human alpha-synuclein and blocked with a suitable non-specific binding protein (typically BSA or casein). Once steady state is achieved, a small capillary is packed with coated beads and samples of each fixed antibody/alpha-synuclein monomer are injected over the column. […] This step is repeated for each concentration of alpha-synuclein monomer and resultant fluorescent signal (proportional to percent free antibody) and then plotted as a function of fluorescent signal versus monomeric α-synuclein concentration and globally fit to a 1:1 binding model to obtain KD. Independent runs (n=3) run with technical duplicates (95% confidence intervals) are reported.
During this incubation time, an MSD Sector plate is coated with monomeric human alpha-synuclein and blocked with a blocking reagent (i.e. BSA, casein). Following steady state equilibrium incubation times, individual antibody/mIgG1-hAsyn 100-140 mixtures are added simultaneously to the plate and allowed to incubate for 10 minutes to capture free antibody and minimize exchange with antibody in complex with mIgG1-hAsyn100-140. Following this short incubation, plates are subsequently washed and incubated with a biotinylated anti-human secondary antibody, followed by detection using streptavidin-S-tag on the MSD instrument. […]
The target in experiment [14] is T4, biotinylated human α-synuclein peptide 120-140 (human, biotinylated (site not stated)).
T4 construct: also called α-synuclein fragment 120-140
T4 peptide: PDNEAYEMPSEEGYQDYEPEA
Put plainly: ELISA on biotinylated human alpha-synuclein peptide 120-140, detection with goat anti-human kappa-AP, OD560.

The target of experiment [15] is T2, monomeric human α-synuclein. In words: ELISA on plate-coated full-length (1-140) human alpha-synuclein, detection with goat anti-human kappa-AP, OD560.
Protocol: as §2
(§3) Binding full-length (1-140) α-synuclein is also determined. The procedure is essentially as described above for α-synuclein fibril binding.
Experiment [16] deals with truncated human α-synuclein fragment 1-120 (human, UniProt P37840 1-120). In words: ELISA on plate-coated truncated human alpha-synuclein fragment 1-120, detection with goat anti-human kappa-AP, OD560.
Protocol: as §2, §3

B1: Antibody 1 (antibody, human IgG4 S228P, kappa, F234A L235A, V domains shown)
VH: EVQLLESGGGLVQPGGSLRLSCAASGFTFSSYAMSWVRQAPGKGLEWVSAISGSGGDTYYADSVKGRFTISRDNSKNTLYLQMNSLRAEDTAVYYCARGYGMDVWGQGTTVTVSS
VL: DVVMTQSPLSLPVTLGQPASISCRSSQSLVHSDGNTYLMWFQQRPGQSPRRLIYKVSNRNSGVPDRFSGSGSGTDFTLKISRVEAEDVGVYYCMQGTKQYPTFGQGTKLEIKR
modifications: about 1% of the N-terminal glutamic acid may be converted to pyroglutamic acid; less than about 1% of the C-terminal glycine may be clipped
notes: IgG4PAA, kappa
For B1, the “Average IC50, inhibition of fibril internalization into SH-SY5Y cells” value in experiment [1] is 0.45 µg/mL. Further, the “IC50 Standard Deviation, inhibition of fibril internalization into SH-SY5Y cells” value in [1] was 0.017 µg/mL. Also, the “Average IC50, inhibition of alpha-synuclein aggregation in SHSY-5Y-A53T-myc cells” value in experiment [2] was determined as 0.41 µg/mL. Moreover, the equilibrium dissociation constant (Kd) – broadly, the constant that tells how readily two partners part at equilibrium – in experiment [3] worked out at 19 nM; in experiment [4] it was 554 nM; in [5], 89 nM; in experiment [6] it was 49.7 nM; in experiment [7], 0.00012 nM; in experiment [8] it was 0.00097 nM. The dissociation constant (Kd) was 11.8 nM in experiment [9], 675 nM in experiment [10] and 19 nM in experiment [11]. The concentration giving a half-maximal response (EC50) (as a rule, the concentration needed to bring the measured effect to its halfway point) in experiment [12] was 0.000193 µg/mL. Further, in experiment [13], the “avidity factor (monomer KD against dimer KD)” value was about 20000 fold. Moreover, the EC50 (read off the curve) (as a rule, the concentration that produces a half-maximal response) is about 0.9 nM in experiment [14], about 1 nM in experiment [15] and about 0.7 nM in [16].

B2: Antibody 2 (antibody, human IgG4 S228P, kappa, F234A L235A, V domains shown)
VH: EVQLLESGGGLVQPGGSLRLSCAASGFTFSSYAMSWVRQAPGKGLEWVSAISGSGGDTYYADSVQGRFTISRDNSKNTLYLQMNSLRAEDTAVYYCARGYGMDVWGQGTTVTVSS
VL: DVVMTQSPLSLPVTLGQPASISCRSSQDLVHSDGNTYLMWFQQRPGQSPRRLIYKVSDRNSGVPDRFSGSGSGTDFTLKISRVEAEDVGVYYCMQGTKQYPTFGQGTKLEIKR
modifications: about 1% of the N-terminal glutamic acid may be converted to pyroglutamic acid; less than about 1% of the C-terminal glycine may be clipped
notes: IgG4PAA, kappa
B2: the “Average IC50, inhibition of fibril internalization into SH-SY5Y cells” value in [1] came to 0.56 µg/mL. In addition, the “IC50 Standard Deviation, inhibition of fibril internalization into SH-SY5Y cells” value in [1] worked out at 0.026 µg/mL. Further, the “Average IC50, inhibition of alpha-synuclein aggregation in SHSY-5Y-A53T-myc cells” value in experiment [2] amounted to 0.4 µg/mL. For the same molecule, the dissociation constant (Kd) was 65.6 nM in experiment [3]; 1020 nM in experiment [4]; 140 nM in experiment [5]; 99.3 nM in experiment [6]; 0.0032 nM in experiment [7]. The EC50 in experiment [12] is 0.000161 µg/mL. In addition, the concentration giving a half-maximal response (EC50 (read off the curve)) is about 5 nM in [14], about 0.8 nM in experiment [15] and about 0.6 nM in experiment [16].

For the origin of these results see US20220048982A1 (Eli Lilly, published 2022).
